T1: OX40 chimera 1549: human OX40 with mouse domains 1A and 4B and non-annotated extracellular region (aa 30-65 … (human; mouse, UniProt P47741 26-61; P47741 125-211)
T1 construct: domain: 1A;domain: 4B and non-annotated extracellular region; Limits derived as for 1544
T1 sequence: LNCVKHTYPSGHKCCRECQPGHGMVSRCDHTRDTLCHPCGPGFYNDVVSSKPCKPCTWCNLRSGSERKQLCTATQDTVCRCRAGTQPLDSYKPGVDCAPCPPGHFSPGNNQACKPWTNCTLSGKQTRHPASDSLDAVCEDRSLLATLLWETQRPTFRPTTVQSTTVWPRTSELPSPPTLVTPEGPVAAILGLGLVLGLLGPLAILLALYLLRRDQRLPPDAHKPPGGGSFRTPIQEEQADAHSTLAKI

T2: OX40 chimera 1548: human OX40 with mouse module 3 and domains 4A and 4B (aa 108-167), on FreeStyle 293-F cells (human; mouse, UniProt P47741 104-165)
T2 construct: domain: module 3, 4A and 4B; Limits derived as for 1544
T2 sequence: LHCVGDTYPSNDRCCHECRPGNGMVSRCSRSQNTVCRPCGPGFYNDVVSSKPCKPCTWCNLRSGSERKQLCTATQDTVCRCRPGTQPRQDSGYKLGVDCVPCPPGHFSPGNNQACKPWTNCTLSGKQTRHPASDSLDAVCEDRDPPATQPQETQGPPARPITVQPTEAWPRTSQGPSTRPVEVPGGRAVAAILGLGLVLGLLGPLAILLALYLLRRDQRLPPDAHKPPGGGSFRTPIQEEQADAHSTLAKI

T3: murine OX40 (murine, UniProt P47741 20-211, limits assumed)
T3 sequence (looked up): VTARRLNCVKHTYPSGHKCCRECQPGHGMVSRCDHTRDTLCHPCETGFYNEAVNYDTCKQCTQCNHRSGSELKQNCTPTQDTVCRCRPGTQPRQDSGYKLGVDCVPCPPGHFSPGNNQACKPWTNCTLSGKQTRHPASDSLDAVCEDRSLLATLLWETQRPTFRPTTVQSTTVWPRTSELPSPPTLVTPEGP

T4: Human OX40 (R&D systems, #3358_OX) (human, UniProt P43489 29-216)
T4 construct: Bought; Several catalogue numbers are given for it; also called human OX40 (R&D Systems, 3388-OX); OX40-Fc (R&D systems, #3358_OX); not shown: Fc part
T4 sequence: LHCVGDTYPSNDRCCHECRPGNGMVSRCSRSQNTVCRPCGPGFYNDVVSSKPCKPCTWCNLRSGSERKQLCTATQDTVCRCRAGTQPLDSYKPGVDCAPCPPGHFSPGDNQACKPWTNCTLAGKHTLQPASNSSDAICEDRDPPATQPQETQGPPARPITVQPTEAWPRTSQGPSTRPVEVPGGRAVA


What was measured:
[1] = molecular target: T5, CTLA4-Fc (Fitzgerald, #30R-CD152) (human, UniProt P16410 38-152); test: ELISA on coated CTLA4-Fc and CD28-Fc
T5 construct: Bought; also called human CTLA-4 (Fitzgerald); biotinylated-CTLA4; not shown: Fc part of the bought fusion, not described
Method: 96-well flat bottom high binding plates (Greiner, #655074) were coated with either CTLA4-Fc (Fitzgerald, #30R-CD152) or CD28-Fc (R&D systems, 342-CD) by incubating overnight at 4° C. […] The plates were washed again and sample or controls (serially diluted ⅕ from 200-0.001 μg/ml) were added to the wells. The samples were incubated for 1 h at room temperature and then washed. Detection antibody, goat-anti-human IgG Fcγ-HRP (Jackson, #109-035-098) was added and the plates were subsequently developed using SuperSignal Pico Chemiluminescent substrate (Thermo Scientific, #37069) and detected with an Envision reader (Perkin Elmer). EC50 values were calculated for both CTLA4 and CD28. The binding ratio (EC50 binding ratio=[EC50 for CD28]÷[EC50 for CTLA-4]) was calculated for each polypeptide and is shown in Table 1.1.

[2] = molecular target: T5, CTLA4-Fc (Fitzgerald, #30R-CD152); test: SPR on immobilised CTLA4-Fc and CD28-Fc
Method: Either CTLA4-Fc (Fitzgerald, #30R-CD152) or CD28-Fc (R&D Systems, 342-CD) was immobilized to the Biacore™ sensor chip, CM5, using conventional amine coupling. The CD86 mutant molecules and controls (serially diluted ½ 100-1.5 nM) were analyzed for binding in HBS-P (GE, BR-1003-68) at a flow rate of […]. The association was followed for 3 minutes and the dissociation for 10 minutes. Regeneration was performed twice using 5 mM NaOH for 30 seconds. The kinetic parameters and the affinity constants were calculated using BIAevaluation 4.1 software (Table 1.3).

[3] = molecular target: T6, soluble murine CTLA-4 (R&D systems) (murine, UniProt P09793 36-162); test: not described
T6 construct: Bought
Method: In brief, 96-well flat bottom plate high binding plates (Greiner #655074) were coated with human CTLA-4 (Fitzgerald) incubating overnight at 4° C.
The sample (exemplary CD86 mutant) was pre-incubated at room temperature for 1 hour with soluble biotinylated human CTLA4 (Fitzgerald #30R-CD152) or soluble murine CTLA-4 (R&D systems) at different concentrations (serial dilutions ¼ from 30000 to 0.3 ng/ml).
The mixture was then added to the blocked wells in the ELISA plate. Detection was performed with Streptavidin-HRP (Pierce, #21126) and the plates were subsequently developed using SuperSignal Pico Chemiluminescent substrate (Thermo Scientific, #37069) and detected with Envision reader (Perkin Elmer).

[4] = molecular target: T1, OX40 chimera 1549: human OX40 with …; test: flow cytometry, 293-F transfectants
Method: (§1) The mouse/human chimeras were transiently transfected into FreeStyle 293-F cells (Invitrogen), incubated 48 hours in FreeStyle 293 expression medium (Invitrogen) 37 C, 8% CO₂, 135 rpm. The transfected cells were incubated with human OX40 antibodies, human OX40L (hOX40L, RnD Systems), mouse OX40L (mOX40L, RnD Systems) and controls for 30 min 4° C. and then detected with a-huIgG-PE (Jackson Immunoresearch) 30 min 4° C. Cells were analyzed with FACS Verse (BD Biosciences). Binding to the different chimeric constructs were calculated as relative (mean fluorescence intensity) MFI compared to the binding of the isotype control.

[5] = molecular target: T2, OX40 chimera 1548: human OX40 with …; test: flow cytometry, 293-F transfectants
Method: as §1

[6] = molecular target: T7, recombinant human CD137-Fc (R&D #838-4B) (human, UniProt Q07011 24-186); test: ELISA
T7 construct: Bought; also called Human CD137 (R&D systems); CD137 (R&D Systems); not shown: Fc part, not described

murine OX40 = molecular target: T3, murine OX40; test: ELISA
CD40 (Ancell) [7] = molecular target: T8, CD40 (Ancell) (UniProt P25942 21-193); test: ELISA
T8 construct: also called CD40-Fc (Ancell #504-820); not shown: Fc part, not described

[8] = molecular target: extracellular part of OX40 from Macaca mulatta fused to the transmembrane and intracellular part of hCD40, on … (Macaca mulatta; human, UniProt A0A5F7ZKD5 21-541; P25942 194-277); test: flow cytometry, macOX40-HEK cells; 95% confidence interval
Method: For the assay, the transfected cells were incubated with the test antibodies and controls for 30 min at 4° C. and then detected with a-huIgG-PE (Jackson Immunoresearch) 30 min 4° C. Cells were analyzed by flow cytometry with FACS Verse (BD Biosciences).

CD40 (Ancell) [9] = molecular target: T8, CD40 (Ancell); test: ELISA, coated CD40-Fc
Method: (§2) ELISA plates (Greiner #655074) were coated with 50 μl/well of recombinant human OX40 (R&D #1493-CD), CD40-Fc (Ancell #504-820) or CD137 (R&D #838-4B) diluted to a final concentration of 0.5 μg/ml in PBS for 1 h at 37° C. or overnight at 4° C. Plates were washed with PBS+0.05% TWEEN20 (PBST), followed by block with PBST+1% bovine serum albumin (BSA). Antibody samples were prepared as serial 1/10 dilutions from 10-0.01 μg/ml in PBST+1% BSA and incubated for 1h in room temperature, followed by detection using a horse radish peroxidase-conjugated anti-human kappa light chain antibody (AbD Serotec #STAR127P) and developed using SuperSignal ELISA Pico Chemiluminescent substrate (Pierce ThermoScientific #37069).

[10] = molecular target: CD137 on primary human CD8+ T cells (human, UniProt Q07011 24-255); test: cell-based or functional assay
[11] = molecular target: T4, Human OX40 (R&D systems, #3358_OX); test: ELISA, coated recombinant human OX40
Method: as §2

T5 sequence (P16410 38-152 limits assumed): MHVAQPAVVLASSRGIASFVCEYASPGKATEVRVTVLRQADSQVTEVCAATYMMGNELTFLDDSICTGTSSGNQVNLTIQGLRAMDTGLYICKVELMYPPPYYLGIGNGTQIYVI
T8 sequence (P25942 21-193 limits assumed): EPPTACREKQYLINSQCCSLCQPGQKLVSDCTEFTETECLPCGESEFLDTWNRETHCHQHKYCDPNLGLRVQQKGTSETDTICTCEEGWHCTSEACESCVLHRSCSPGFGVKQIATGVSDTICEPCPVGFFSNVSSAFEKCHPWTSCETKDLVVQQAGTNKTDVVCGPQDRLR
T7 sequence (Q07011 24-186 limits assumed): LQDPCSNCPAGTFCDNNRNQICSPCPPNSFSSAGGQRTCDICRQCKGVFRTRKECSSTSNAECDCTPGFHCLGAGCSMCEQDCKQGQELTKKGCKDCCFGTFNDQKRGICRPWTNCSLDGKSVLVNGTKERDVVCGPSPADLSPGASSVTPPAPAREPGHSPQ
CD137 on primary human CD8+ T cells, sequence (Q07011 24-255 limits assumed): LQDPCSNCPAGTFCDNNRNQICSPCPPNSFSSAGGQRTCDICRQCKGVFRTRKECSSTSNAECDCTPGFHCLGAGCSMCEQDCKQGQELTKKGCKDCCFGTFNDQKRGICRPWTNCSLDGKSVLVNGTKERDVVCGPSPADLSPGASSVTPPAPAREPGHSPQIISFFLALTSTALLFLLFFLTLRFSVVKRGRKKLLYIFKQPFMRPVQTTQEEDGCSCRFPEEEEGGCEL
extracellular part of OX40 from Macaca mulatta fused to the transmembrane and intracellular part of hCD40, on …, sequence (P25942 other isoform, or with tags, fused parts or gaps): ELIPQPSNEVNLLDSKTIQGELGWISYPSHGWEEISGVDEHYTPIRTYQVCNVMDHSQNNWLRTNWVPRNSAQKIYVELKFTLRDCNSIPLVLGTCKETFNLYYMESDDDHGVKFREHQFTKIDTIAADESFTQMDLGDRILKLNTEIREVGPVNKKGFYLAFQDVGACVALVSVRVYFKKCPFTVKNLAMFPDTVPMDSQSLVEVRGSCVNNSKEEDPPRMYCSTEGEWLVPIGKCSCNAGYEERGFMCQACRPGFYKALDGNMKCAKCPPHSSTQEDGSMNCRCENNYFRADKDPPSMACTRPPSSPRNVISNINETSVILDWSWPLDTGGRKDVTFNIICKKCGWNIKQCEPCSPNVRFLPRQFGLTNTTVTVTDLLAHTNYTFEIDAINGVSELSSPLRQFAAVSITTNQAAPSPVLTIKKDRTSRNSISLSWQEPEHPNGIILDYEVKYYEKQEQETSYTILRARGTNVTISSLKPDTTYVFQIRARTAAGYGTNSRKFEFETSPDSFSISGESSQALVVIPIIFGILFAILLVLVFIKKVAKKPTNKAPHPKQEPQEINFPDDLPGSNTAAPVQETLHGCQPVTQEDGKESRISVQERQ

Binder | EC50 binding ratio ([EC50 for CD28]/[EC50 for CTLA-4]) [1] | Kd binding ratio ([Kd for CD28]/[Kd for CTLA-4]) [2] | binding result [3] | relative MFI vs isotype control [4] | relative MFI vs isotype control [5] | binding result [6] | binding result (murine OX40) | binding result (CD40 (Ancell) [7]) | other results
CD86 mutant 907 (ligand, Variant of the CD86 extracellular domain) LKIQAYFNETADLPCQFANSQNQSLSELVVFWQDQENLVLNEVYLGKEKFDSVHSKYMGRTSFDSDSWTLRLHNLQIKDKGLYQCIIHHKKPTGMIKIHEMNSELSVLA | 30.5 | 5.6 | binds | – | – | – | – | – | –
CD86 mutant 915 (ligand, Variant of the CD86 extracellular domain) LKIQAYFNETADLPCQFANSQNQSLSELVVFWQDQENLILNEVYLGKEKFDSVDSKYMGRTSFDSDSWTLRLHNLQIKDKGFYQCIIHHKKPSGLIKIHQMDSELSVLA | 9.9 | 1.9 | binds | – | – | – | – | – | –
CD86 mutant 938 (ligand, Variant of the CD86 extracellular domain) LKIQAYFNETADLPCQFANSQNQSLSELVVFWQDQENLILNEVYLGKEKFDSVHSKYMGRTSFDSDSWTLRLHNLQIKDKGIYQCIIHHKKPTGMVKIHQMNSELSVLA | 2 | 5.5 | binds | – | – | – | – | – | –
CD86 mutant 908 (ligand, Variant of the CD86 extracellular domain) LKIQAYFNETADLPCQFANSQNQSLSELVVFWQDQENLVLNEVYLGKEKFDSVHSKYMGRTSFDSDSWTLRLHNLQIKDKGIYQCIIHHKKPTGMVKIHEMNSELSVLA | 6.2 | 4.7 | binds | – | – | – | – | – | –
anti-OX40 antibody 1166/1167 (antibody, V domains shown, Tested as IgG) VH: EVQLLESGGGLVQPGGSLRLSCAASGFTFGGYYMSWVRQAPGKGLEWVSAISGSGGSTYYADSVKGRFTISRDNSKNTLYLQMNSLRAEDTAVYYCARYDYASMDYWGQGTLVTVSS VL: DIQMTQSPSSLSASVGDRVTITCRASQSISSYLNWYQQKPGKAPKLLIYAASSLQSGVPSRFSGSGSGTDFTLTISSLQPEDFATYYCQQYYWYGLSTFGQGTKLEIK | – | – | – | 11.3 | 15.8 | no binding | no binding | no binding | EC50 [8]: 0.16 to 0.242 µg/mL
anti-CD137 antibody 1214/1215 (antibody, IgG1, V domains shown, Produced as IgG; also called 1214-bio) VH: EVQLLESGGGLVQPGGSLRLSCAASGFTFSSYAMSWVRQAPGKGLEWVSSIGSGGGYTGYADSVKGRFTISRDNSKNTLYLQMNSLRAEDTAVYYCARVGHPFDYWGQGTLVTVSS VL: DIQMTQSPSSLSASVGDRVTITCRASQSISSYLNWYQQKPGKAPKLLIYAASSLQSGVPSRFSGSGSGTDFTLTISSLQPEDFATYYCQQDAYPHTFGQGTKLEIK | – | – | – | – | – | – | – | – | binding result (CD40 (Ancell) [9]): no binding (tested: 10 µg/ml); Max IFN-γ [10]: 122000 pg/mL; Mean IFN-γ [10]: 51800 pg/mL; Min IFN-γ [10]: 8210 pg/mL; binding result [11]: no binding (tested: 10 µg/ml)

More lines, main results first:

EC50 binding ratio ([EC50 for CD28]/[EC50 for CTLA-4]) [1] | Kd binding ratio ([Kd for CD28]/[Kd for CTLA-4]) [2] | binding result [3] | relative MFI vs isotype control [4] | relative MFI vs isotype control [5] | binding result [6] | binding result (murine OX40) | binding result (CD40 (Ancell) [7]) | Binder | other results
– | – | – | 12.1 | 20.3 | no binding | no binding | no binding | anti-OX40 antibody 1170/1171 (antibody, V domains shown, Tested as IgG) VH: EVQLLESGGGLVQPGGSLRLSCAASGFTFGGYYMSWVRQAPGKGLEWVSYIPGSGGSTYYADSVKGRFTISRDNSKNTLYLQMNSLRAEDTAVYYCARYDYYWMDYWGQGTLVTVSS VL: DIQMTQSPSSLSASVGDRVTITCRASQSISSYLNWYQQKPGKAPKLLIYAASSLQSGVPSRFSGSGSGTDFTLTISSLQPEDFATYYCQQGHGSYPHTFGQGTKLEIK | –
– | – | – | 10.6 | 17.2 | no binding | no binding | no binding | anti-OX40 antibody 1514/1515 (antibody, V domains shown, Tested as IgG) VH: EVQLLESGGGLVQPGGSLRLSCAASGFTFGYYYMSWVRQAPGKGLEWVSGISSYGSYTYYADSVKGRFTISRDNSKNTLYLQMNSLRAEDTAVYYCARSGYSNWANSFDYWGQGTLVTVSS VL: DIQMTQSPSSLSASVGDRVTITCRASQSISSYLNWYQQKPGKAPKLLIYAASSLQSGVPSRFSGSGSGTDFTLTISSLQPEDFATYYCQQGDYTLFTFGQGTKLEIK | –
